Measured values: patent US20210115143A1

Target: hPD-L1-Fc fusion protein (made in the filing, Example 1) (human) (UniProt Q9NZQ7)
Assay: SPR, Biacore X100, hPD-L1-Fc on CM5 chip, antibody in solution, 25 C

Chain of hPD-L1-Fc fusion protein (made in the filing, Example 1) (human) (Q9NZQ7 19-238 limits assumed): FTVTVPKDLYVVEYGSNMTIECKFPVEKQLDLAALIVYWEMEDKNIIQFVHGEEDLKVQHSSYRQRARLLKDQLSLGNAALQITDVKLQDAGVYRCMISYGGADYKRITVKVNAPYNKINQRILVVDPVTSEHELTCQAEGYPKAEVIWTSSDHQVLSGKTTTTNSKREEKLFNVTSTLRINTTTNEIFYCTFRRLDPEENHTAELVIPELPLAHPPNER

Kd: 81.9 nM
koff: 0.0137 s⁻¹
kon: 167000 M⁻¹ s⁻¹
B1: B50-6 mAb (anti-hPD-L1, human IgG1, lambda) (antibody, part only; not given: human IgG1 and lambda constants, part only)
heavy, part: QVQLQQSGPGLVKPSQTLSLTCAISGDSVSSTKAAWYWIRQSPSRGLEWLGRTYFRSKWYNDYADSVKSRLTINPDTSKNQFSLQLKSVSPEDTAVYYCARGQYTAFDIWGQGTMVTVSS
light, part: QVQLVQSGAEVKKPASSVKVSCTASGGSFSTYAISWVRQAPGQGLEWMGGIIPIFGTTKYAQRFQGRVTITADESTTTAYMELSSLISDDTALYYCTTSRGFSYGWFDYWGQGTLVTVSS
